Test results reported in the NTF2 design screens of Basanta et al. (2020).

Assay: protease stability score; higher = more stable; yeast display proteolysis, trypsin and chymotrypsin;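 further: relative to predicted unfolded state with 0 unfolded-like and 1 meaning tenfold more protease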

| Sequence | protease stability score |
| --- | --- |
| DKLEKWAEHMVHLIFRAFETGDWRMLSKYFDPDTRHHVGNFHLVGMEDFIKLARELSERLGMEIDRVHVRHFDTQGDKLTVEIIVHSRVGDKEETRETIILVSKYNGRWHLSSIEIK | 1.39 |
| DKLHHDARWMMERLYETLETGDFHSFLRLADPEVLLIINGQFLHGREEVERFYDEEREKFKGLTIKHLHIHRVEMQGDKVRVDSRIHHIINGVNVHNNVKLEFVAFDGRMHRLRIEEE | 1.24 |
| DKQHEDIRRFMEEFLNAVTTGDEDVLSRLHDPHARFRLHQGEKHDEKHGRESWLKWMSEIRIHHIEIEHIDVQGDYTLMIVHSDGTIDGVRMEWESRIILYVYNGKLKEVEVRIH | 0.691 |
| DKRDEKMERFLRLMIEFYTTGNEDEFRKLADPDVRTIVGDKHAHGWEESEKVFRILIDHMRIRRIHIEHITVQGNWAHSITRLDGEVNGVRVHVRTEVVIIVYNGRVETIDLRWE | 1.28 |
| DKREEELHWAVELLIDIFRTGDERLLIELIDPHARSEVGDKTLHGRQHAEVEHRDWGLDRVETHIHDYKVQGNKLHLDMSTVVNGKDIKISFIAEKYNGRWHLKRIIIR | 1.27 |
| DKREEEVHELIRELVESIITGDFRHFFKLLDPHARSEVGDKELHGREQISDWLLKHIRRVKNITFKEVHFHELRVIGDKVEFHFDIRGVINGQDTTLEVEMKARKIDGRWHVEEIRFI | 1.28 |
| DKREEIAREIWKMFDDAVFTGNEETLERMADPNVRFIIGDKHLIGMRDEIHWLREIRVHIELSRIHDIHLQGDKIHIDSHNDIEIIINGQERRHETKYMIDIRKVNGRWIIERVEIR | 0.818 |
| DKREHDMERWFKLWWHTLMTGDEDLYHELLDPNARIVQGEKHHHGRENLVEYFTHLVEEMRIRHFHLHDMRFQGEKNDIDGHIDITINGQRHDTRFTIHLLIVNGKLRHVELRIL | 0.506 |
| DKRIEWYRHVMEVLFNILLTGNFEILEELLDPHVRIDINGKEYHGREQMIEAWETHLHELRIHDMRIKTIDHQGDKHILTTRVDIDIDGQNVEDRTHIELHIIDGRLKSIILRVS | 1.06 |
| DKTEEDAKRWAEHFSHNMETGNEEKIIDLADPNTRLEVNGRHVHGREEFSRFWKELSDRVDHIRIQITRISIIGDKIRIDSRIFLHINGKEMIVESVLISEKVNGRWMMREIDIR | 1.84 |
| DKTTEEAERDAREVTRLHRTGDEEYLEKYFDPHVKLEFNGRDVHGMELASEILKKVRRDLGVDHIEVKHVELDVQGEWIHVHLNLRVFFDGRETRYEYNVHVRKIDGKWIIKHVIVRVS | 1.34 |
| DKVEDDLREFARLFVEYMETGDEDKVSKLMDPSMRIEIHINGKDIKYHGREELNRWRSEEMKRVDHEKWHHKHIRVIGDKVDIDFRRVEHVGDKHLVFQVHIELFVINGKLHTVIIRIE | 1.53 |
| DLDNILMKLFLKEVEEVERTGDERLIHELADPNVRVEQGDKKFHGRHEAVRIYMELGIKHSRLTDVKFFEGHVLIHVRIHVDGRDIDLTIFMHKIDGRWIIKSMKQD | 1.16 |
| DLDQELREKTIRIELKAWRTGDEDKIKELLDPNTRFIINGRHLIGREAIHILLEQIDHFKDLQPRHVDVINGVVRFDGHMEGTFNGVDQSTKVHIIAWKYNGRWFIESIIII | 1.59 |
| DLEHEITRRVLWELTESSKTGDFDRRLELLDPHARVNIDGKDFHGREEVEYLLREMEKFWGHDRVYLDVKEIEIQGDKIDVDSELTINGKKRKARLIVVKVNGRWVIHSIEVE | 1.04 |
| DLYKHWTDVLLHLFLHVSRTGDEEEVVRLMDPNTLIIINGQEIHGREEIKRTFREMRVDDERLKDMDKIGNKVRVDGEVRITVDGQERTSRAHMVVLKVDGRWTIHSLRIE | 1.77 |
| DNDQEKIKELARLAEQVMQTGNEKLLRELFDPHARIDIDGKTLHGWKDLLEFTRHELERIDHVVFTVRRVDLQGDKVRVETEVNIDINGKKMTLETTLLIDKFDGRWFLRTIEWE | 1.8 |
| DNEDKLAEQMLKEILELWHTGDEEKWSNLADPNTRIHINGQESHGRDNFHKFWEDFHSTLGIDVLKFSLKDFRIQGDKSRVDVETKVKQGDKSEHYRTFLIFIIVDGRVKTIEIRIK | 0.703 |
| DNEEKDNKTATKLLLDWLRTGDEESMSRNADPNTRLEIGDKEFHGREEVLRHLHELKRHFGIERFEVDIERVEIYGDKVVIHSRMNVNGQRREVIFIDRKIDGRWIFKSIELR | 1.13 |
| DNEERYMIKLLHMLWLAFLTGDEELWYKLADPHVRWTFENREIHGREQFVKEQRRIKNMRIEMELKDVRVQGDKIHTDGHLEINQGDKHIHTDVRLHLVVINGRLHEFHVTLV | 1.54 |
| DNESHLAEEWFRWFIDWMQTGNEEETRKFADPNVRFDINGVEIHGMKLYEDHIKHLGFRQDIRIRHIDTYDGQVDVDTEVRINVNGVEIRHKTRTNLIMIDGKLKTLTVKLE | 1.01 |
| DNKEKLMNKAFEWILELIITGDEDTLHELADPNARNHYGEFHHVGREETTRFLVEFNRRLGVDHVRFERMRVIDGKVHLHIEINVDGRRFESDLIFFKVDGRWKLNFVHFRHV | 1.27 |
| DNTEENTRTLLELLKRVWRTGDWSQLDKLLDPNARAEINGVELHGREKVVEVFREELERLGVEYTDSRVKDMKVQGDKAIIDLELETEQGDKTHMHDLHIETRKVDGRWFVEHIIVH | 1.75 |
| DPREIALKLLLQIMQELEETGDFREEEKYVDPHMRIKIDGVIYHGRSAIEHEYRRFDHIHEIELKRFHVQGDKITLEGYIRGNFDGKEHNTRSILLAKKVNGRWVLTEVTWL | 0.801 |
| DQDDHMAKEFHKLFFDAIRTGDEDLLSMLLDPHVLMNIGNFHRHGRELVVDMQRHLYEKHGFRIHNAHVERWHIFENRLIYHLKVDGKVDGKRHVMEFDLTILKVDGVWIITSITIK | 1.44 |

| Sequence | protease stability score |
| --- | --- |
| DQDEEIMRRLLKTILESWVTGDEDELRRRADPDARSDINGRKHHGRDRVVKRMHDWLRELGIDHLHIEHERIIGEKAHFDTRVHVNGKTFEMFLHFEIIDGRVRSMHVEIR | 0.654 |
| DQEEHEFYNVLRLFMFTLMTGDEHTLKKLLDPNARIEINGQERHGREEILHHMNRNLHEIRMKTLEVKRESVYGNYAHADTRLRGEVNGRESIVTVHIYIQVINGRIEHVHLDIK | 1.45 |
| DQEEQDIRRAIRLYLELLLTGDWKTLEKLIDPNVRLNFNGQEYHGMRDVLRLLKEILEELGIKHVHLHDERIQGDKVKVDTRVEINGKHSEVILVAEKINGKWVVHHLEHNHK | 1.24 |
| DQEERDSKHALRFMEHVISTGDEHLIEELLDPHARLDINGVDVHGREEVKRTITEHRKRYKNLRIHVTDLEVVNGVVRLHTELNIGDKRFEVRWFLDKIDGRWLMTEIRIR | 1.12 |
| DQEEREDRKILKLLVELWRTGNEEVLEHLLDPNVKMRLEFEGREDSAHGRESMIEMLRRVWKVLGIKHERLESVHVFDGVVIITMRLSVDGREQDIQLLFFVYDGRIKSIVIRVRDR | 1.45 |
| DQEERIAHKVAEFFLHALLTGDERLLTEYFDPHVRIIIHINGVEIRYHGREEWVEWLRDILRRFDVVRFHIRDIRNIGNKSIVHSEHREHVNGKSRSTRTELLIDVVDGRIHEVEIRIE | 1.44 |
| DQEHEDARNVLHLLIRSWRTGDEHTSEHLMDPDVKIIYNGRVHVGREDAHRFVEEARVHHIVLHDSRVQGDYIRLDIRVEGEINGRRDRTEVDMVVLKINGRWMIQSIKFK | 1.38 |
| DQEHRDLHKLAHLILEYLVTGDFEMFEHLADPNVKVNINGKEMHGMERMREHLELIWKELRIHHLHITEVTIQGNKVEIDGRWDGKVNGQHRIEERHFYLVTVNGRIRHISEEIV | 1.37 |
| DQHERELEHAMEMLEKILKTGDERLFEHYADPHIRLEIEINGRRIDDHGRDLVLHLWRKMGADHMNIRSIDIQGDKLILNSTIEFNGQIHRSRFISLKVNGRWFIESVRLQDT | 0.907 |
| DQKKELIKKVHEHLFEDLITGDEKKLLSLADPNMRSDINGREIHGMEETSRILLELNRHWGVDRVEVHEHDMKIQGDKAIIHGTLKFNGVETTVELVILKINGVWLLKEVHFR | 0.76 |
| DQLDKSMKESMTRALEHWETGNERSLENLLDPNTKVVVNGVIVHGWERMSELIHDFWRRLGIDHVEIEDIHNHIQGDKAVLNNKTVINVNGQEIKTTLIIYITKVNGRWTIHSIEIHIH | 1.72 |
| DQREETTNRALHEFIENLITGDEHELLRLLDPNTKMIWNGRENHGWKRAKTVLKEFLERIDVFKDHKLRNMELQGNKAEVEGQVIFEIDGKEVRHDLSLIFLKVDGKWMIESIEIR | 1.34 |
| DQRERDQHIALEIWLLVLETGDERYVRRYADPRMRIEVGDKEIHGREDALEFRTEELRHMRLRDFRNKSFTVIDGRVDFYGHLLIEVDGRSQIFDSRLIILKVNGRWFLESEIRH | 1.43 |
| DRDDEMTERALKEHIKNFRTGDFDKLLELADPNVRVDIDGREIHGRENFVKLVLKLMDDLGMKPEDVWVEHVNVFNGKVHMRIVLVTFYGDKRHINDTNVIATKFDGRWILKDVTMV | 1.08 |
| DRDEQMLRTYLHRMYESIRTGDEDSFKRLFDPNTRLHFENHHEHGWELLLRLMLRYANQADHFKLEIEDVTVQGDKAILRVHITVHVDGRDVSRSTVLYTTKVDGQWHFETVREK | 1.48 |
| DRDQHQAEKAFKLLVDILQTGDEEEIYKMADPHMQIDFDGRLHHGRDEFVKLVSETIRKFKNIRVEIHHIEVFDGRMHTDSRIHVGDKEWTIDIHIQKVNGKWKLKHVRVD | 0.945 |
| DREEEDYRRAWEHLHKDWKTGNEEHMERNADPNVRVEINGVERVGRELFVELMRHLVRHIRIEHVHVERSDIVNGVIILDMIVTGRIGDKSEIERVEVHTLKIDGRWLLTEVRFK | 0.663 |
| DREEEELKRIMHLFINFVETGDWELILKLMDPNVKMQIDFNGKIFRNHGRDALEYTIRLMGIDHIEIHHQDVIDGKLHIDVTVHIDGQDLRVHIHVIVIDGRIREVRHRTH | 1.23 |
| DREEEEVRRARKLWVDWAETGDEESIFKNADPRTRVDINGKILHGMEIYKKESEKLGIDNIEFRVDDVRVFDGRLEMDGELIVNGRSIRVHIYSRKIDGRWVLTSINFI | 0.872 |
| DREEEHTRTLAKELFEIFLTGDFDRFSELADPNTRLRIIINGVEFRDHGMEFWQWWVDEIRIHSYRMRDMRVFNGQAILLSTSDVEFNGRRHETTVEFVLVIVNGRIKSVTIIVR | 1.69 |
| DREEEKLLHAIKLLLHNWMTGDEDSEIDLMDPNARIVWNGVELHGMTEVRRFLHEYHRRFDVFTHTHIDHYRVIGDKAESHIRLEGSVDGRTIKHQTFILMSKYNGKWTNQTLTFE | 1.13 |
| DREEHELLHAIERWLKAEETGDEHELKKLADPHTRTHIRIGDKHIERHGREDMIKVFRELGFKHHHMRSIEIQGDYVHVRGENRFDGQHITLILIFHKFDGRWILREVEVHIR | 1.41 |
| DREEKQAEEVATEIIRALLTGDEKWLLHLIDPNVRWIMDVNGKELTLHGWHELIKKFRDDFRHLGVERFHVHVKDWDIQGDKMHLRVTFHIDGKTFDYELIIIVINGRITSMEVREH | 2 |
| DREELLMLFLKSWLTGDEHILKELLDPHVRMDVDGVEQHGRDVLLHLLHHLSRYMGVDHHRIERFEVQGDKIFINLRIHWNGVESELEIILFVIDGKIKEVEIRSRDEDHKRMVKESWR | 1.19 |
| DREENEIREFIEKLVDAHLTGNFELMDELADPNVRIEIGDKRYHGREEYLRLMHELRIHHVEIDHIEWYNGQVHMHGTVDGVVDGRRHRIHTEMTVEKVNGRWILTEERQL | 1.69 |
